Reference: patent US20240101642A1 (DUKE UNIVERSITY, published 2024)

Experiments:
[1] = molecular target: T1, wild-type (WT) β2AR reconstituted in high-density lipoprotein particles (HDL-β2AR), non-phosphorylated (human, UniProt P07550 1-413); experiment: in situ read-outs: [125I]-CYP/isoproterenol competition binding with HDL-β2AR and bimane fluorescence
T1 construct: also called β2AR HDLs; non-phosphorylated HDL-β2AR; not shown: N-terminal FLAG-tag; C-terminal 6xHis-tag

[2] = molecular target: T1, wild-type (WT) β2AR reconstituted in …; experiment: cell-based or functional assay
[3] = molecular target: β2AR ligated to a non-phosphorylated version of the V2R peptide, in HDL particles (β2ARnp) (human, UniProt P07550 1-365); experiment: cell-based or functional assay

log IC50 of isoproterenol (ISO), [125I]-CYP competition binding, in the presence of βarr1 (no transducer: -6.82+/-0.03) [2]: -6.81 log | log IC50 of isoproterenol (ISO), [125I]-CYP competition binding, in the presence of βarr1 (no transducer: -6.42+/-0.09) [3]: -6.49 log
B1: β-arrestin1, minimal cysteine and truncated variant of rat βarr1 (βarr1-MC-393) (other, UniProt P29066 1-393, looked up)
chain: MGDKGTRVFKKASPNGKLTVYLGKRDFVDHIDLVDPVDGVVLVDPEYLKERRVYVTLTAAFRYGREDLDVLGLTFRKDLFVANVQSFPPAPEDKKPLTRLQERLIKKLGEHAYPFTFEIPPNLPSSVTLQPGPEDTGKAIGVDYEVKAFVAENLEEKIHKRNSVRLVIRKVQYAPERPGPQPTAETTRQFLMSDKPLHLEASLDKEIYYHGEPISVNVHVTNNTNKTVKKIKISVRQYADIVLFNTAQYKVPVAMEEADDTVAPSSTFSKVYTLTPFLANNREKRGLALDGKLKHEDTNLASSTLLREGANREILGIIVSYKVKVKLVVSRGGLLGDLASSDVAVELPFTLMHPKPKEEPPHREVPESETPVDTNLIELDTNDDDIVFEDFAR
notes: range 1-393; Expressed as GST fusion in BL21(DE3) and removed from GST by thrombin; also called βarr1-393 minimal cysteine
binding result [1]: no binding (tested: micromolar concentrations)
